Reference: the supplement of paper PMC12855868

B1: library; numbered along this chain (parent)
chain: MAAAGGARLLRAASAVLGGPAGRWLHHAGSRAGSSGLLRNRGPGGSAEASRSLSVSARARSSSEDKITVHFINRDGETLTTKGKVGDSLLDVVVENNLDIDGFGACEGTLACSTCHLIFEDHIYEKLDAITDEENDMLDLAYGLTDRSRLGCQICLTKSMDNMTVRVPETVADARQSIDVGKTS

Variants of: B1
Experiment: scaled log2 fold change in cell abundance, elesclomol vs control (0 = silent mean, 1 = nonsense mean) (scaled log2 ratio); higher = higher viability under elesclomol (loss of FDX1 cuproptosis function)
Conditions: glucose 10 mM
[1] = with ABC1 FDX1 KO, elesclomol 5 nM, 14 days
[2] = with HEK293T FDX1 KO, elesclomol 40 nM, 11 days
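Also: variant abundance is its share of total variant reads in each endpoint sample, from next-generation sequencing of the integrated ORF PCR-amplified out of genomic DNA.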

Row | Variant | scaled log2 fold change [1] | scaled log2 fold change [2]
1 | MAEAGGARLLRAASAVLGGPAGRWLHHAGSRAGSSGLLRNRGPGGSAEASRSLSVSARARSSSEDKITVHFINRDGETLTTKGKVGDSLLDVVVENNLDIDGFGACEGTLACSTCHLIFEDHIYEKLDAITDEENDMLDLAYGLTDRSRLGCQICLTKSMDNMTVRVPETVADARQSIDVGKTS | 0.299 | 1.21
2 | MAAAGGARLLRAASAVLGGPAGRWLHHAGSRAGSSGLLRNRGPGGSAEASRSLSVSARARSSSEDKITVHFINRDGETLTTKGKVGDSLLDVVVENNLDIDGFGACIGTLACSTCHLIFEDHIYEKLDAITDEENDMLDLAYGLTDRSRLGCQICLTKSMDNMTVRVPETVADARQSIDVGKTS | 0.227 | 0.0716
3 | MAAAGGARLLRAASAVLGGPAGRWLHHAGSRAGSSGLLRNRGPGGSAEASRSLSVSARARSSSEDKITVHFINRHGETLTTKGKVGDSLLDVVVENNLDIDGFGACEGTLACSTCHLIFEDHIYEKLDAITDEENDMLDLAYGLTDRSRLGCQICLTKSMDNMTVRVPETVADARQSIDVGKTS | 0.273 | 
4 | MAAAGGARLLRAASAVLGGPAGRWLHHAGSRAGSSGLLRNRGPGGSAEASRSLSVSARARSSSEDKITVHFINRDGETLTTKGKVGDSLLDVVVENNLDIDGFGACEGTLACSTCHLIFEDHIYEKLDAITDEENDMLDLAYGLTDRSRLGCQICLTKSMDNMTVRVPETVADCRQSIDVGKTS | -0.397 | 
5 | MAAAGGARLLRAASAVLGGPAGRWLHHAGSRAGSSGLLRNRGPGGSAEASRSLSVSARARSSSEDKITVHFINRDGETLTTKGKVGDSLLDVVVENNLPIDGFGACEGTLACSTCHLIFEDHIYEKLDAITDEENDMLDLAYGLTDRSRLGCQICLTKSMDNMTVRVPETVADARQSIDVGKTS | 0.167 | -0.37
6 | MAAAGGARLLRAASAVLGGPAGRWLHHAGSRAGSWGLLRNRGPGGSAEASRSLSVSARARSSSEDKITVHFINRDGETLTTKGKVGDSLLDVVVENNLDIDGFGACEGTLACSTCHLIFEDHIYEKLDAITDEENDMLDLAYGLTDRSRLGCQICLTKSMDNMTVRVPETVADARQSIDVGKTS | -0.0127 | -0.259
7 | MAAAGGARLLRAASAVLGGPAGRWLHHAGSRAGSSGLLRNRGPGGSAEASRSLSVSARARSSSEDKITVHFINRDGETLTTKGKVGDSLLDVVVENNLDIDGFGACEGTLACSTCHLIFEDHIYEKLDAITDEENDMLDLAYGLTDRSRLKCQICLTKSMDNMTVRVPETVADARQSIDVGKTS | 1.04 | 0.728
8 | MAAAGGARLLRAASAVLGGPAGRWLHHAGSRAGSSGLLRNRGPGGSAEASRSLSVSARARSSSEDKITVHFINRDGETLTTKGKVGDSLLDVVVENNLDIDGFGACEGTLACSTCHLIFEDHIYEKLDAITDEENDMLDLAYGLTDRSRLGCQECLTKSMDNMTVRVPETVADARQSIDVGKTS | 1.05 | 0.819
9 | MAAAGGARLLRAASAVLGGPAGRWLHHAGSRAGSSGLLRNRGPGGSAEASRSLSVSARARSSSEDKITVHFINRDGETLTTKGKVGDSLMDVVVENNLDIDGFGACEGTLACSTCHLIFEDHIYEKLDAITDEENDMLDLAYGLTDRSRLGCQICLTKSMDNMTVRVPETVADARQSIDVGKTS | -0.268 | -0.239
